Biological target: T1, synthetic apoA-IMilano peptide 167-R173C-184
T1 chain: SDELRQCLAARLEALKEN

B1: recombinant human LCAT enzyme (Lecithin:Cholesterol Acyltransferase) (protein)
chain: FWLLNVLFPPHTTPKAELSNHTRPVILVPGCLGNQLEAKLDKPDVVNWMCYRKTEDFFTIWLDLNMFLPLGVDCWIDNTRVVYNRSSGLVSNAPGVQIRVPGFGKTYSVEYLDSSKLAGYLHTLVQNLVNNGYVRDETVRAAPYDWRLEPGQQEEYYRKLAGLVEEMHAAYGKPVFLIGHSLGCLHLLYFLLRQPQAWKDRFIDGFISLGAPWGGSIKPMLVLASGDNQGIPIMSSIKLKEEQRITTTSPWMFPSRMAWPEDHVFISTPSFNYTGRDFQRFFADLHFEEGWYMWLQSRDLLAGLPAPGVEVYCLYGVGLPTPRTYIYDHGFPYTDPVGVLYEDGDDTVATRSTELCGLWQGRQPQPVHLLPLHGIQHLNMVFSNLTLEHINAILLGAYRQGPPASPTASPEPPPPE
LCAT activation (esterification of [14C]cholesterol on a proteoliposome substrate), as a percentage of activation obtained with apoA-IWT: failed in this regard
